One test deals with CBP Kix (UniProt Q92793). As to conditions: cited from earlier work.
Another test has as its target Kix. As to conditions: ref Zor et al., 2002, cited from earlier work.
Test [1] concerns the target p53 TAD peptide 1-57 Hepta-(Ala) (human) (UniProt P04637). The test can be described thus: fluorescence polarisation. A general note: Fluorescence polarisation rises when a labelled molecule tumbles more slowly, as on binding a larger partner.
For test [2], the target named is p53 TAD peptide 10-57 Hepta-(Asp) (human) (UniProt P04637). The test can be described thus: fluorescence polarisation.

“And” between values parts separate entries of the source, which are not always exact repeats. Equal entries are not always repeated.

Chain of CREB (P16220 whole entry): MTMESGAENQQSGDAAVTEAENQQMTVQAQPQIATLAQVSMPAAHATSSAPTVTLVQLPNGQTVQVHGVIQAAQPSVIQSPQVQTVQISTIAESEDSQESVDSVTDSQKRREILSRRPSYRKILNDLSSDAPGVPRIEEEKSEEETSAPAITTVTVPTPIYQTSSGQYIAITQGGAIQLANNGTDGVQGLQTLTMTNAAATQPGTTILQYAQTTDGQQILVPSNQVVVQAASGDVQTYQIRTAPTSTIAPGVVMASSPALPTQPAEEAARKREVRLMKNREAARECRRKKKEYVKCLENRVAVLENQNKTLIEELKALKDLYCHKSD
Chain of UniProt Q92793 (Q92793 587-666): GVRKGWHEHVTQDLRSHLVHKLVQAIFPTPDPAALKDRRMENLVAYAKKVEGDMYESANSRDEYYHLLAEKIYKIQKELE

For orientation: Kd means the free concentration of one partner at which half of the binding sites on the other are occupied at equilibrium, for simple one-to-one binding. Regarding CREB (from UniProt P16220), the Kd in the test with CBP Kix was 700 nM. For “CREB: transcription factor CREB, phosphorylated on Ser133, binding Kix (literature)”, on Kix (read-out: KD, Kix, CREB phosphorylated at Ser133), the Kd is 700 nM. In the test with Kix, the “fold tighter Kix binding upon phosphorylation of Ser133” value was 150 fold and ~ 150 fold. With “p300 Taz1 domain (from UniProt Q09472 1-2414) (domain or fragment)”, the figures for the Kd in test [1] and in test [2] were 560 nM and 38 nM, respectively.

Source of the values: PMC2685776 (Oncogene, 2009).
